Experiment: yeast display, Sf9 membrane polyspecificity reagent, FACS + sequencing; frameworks hold sequencing errors
Outline: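 A synthetic nanobody library was expressed on Saccharomyces cerevisiae BJ5465 by galactose induction for 36–48 hours. The library was stained for 1 hour at 4 °C with 10% biotinylated, detergent-solubilized Sf9 membrane reagent and enriched with streptavidin microbeads before FACS. Low and high (top ~1%) gates were set on anti-HA fluorescence for expression and streptavidin fluorescence for reagent binding, and each polyreactivity label reflects the gate of origin.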

Row | Sequence | polyreactivity (PSR sort gate)
1 | QVQLVESGVGLVQAGGSLRLICAASGRIFANYAMGWYRQAPGKERELVAAITGSGGTTYYADSVKGRFTISRDNAKNSVYLEMNSLKPEDTAVYYCATPPPVVWQRWYREYDYWGQGTQVTVSS | low polyreactivity
2 | QVQLVESGVGLVQAGGSLRLIWAASGSTFVKNVMGWYRQAPGKERELVAGITRGGSTYYADSVKGRFTISRDNAKKTVYLQMNSLKPEDTAVYYCAKRYAWDRDYWGQGTQVTVSS | high polyreactivity
3 | QVQLVESGVGLVQAGGSLRLSCAASGFIFYGYAMGWYRQAPGKERELVAGNSTGGSTNYADSVKGRFTISRENAKNTVYLQMNSMKPEDTAVYDGAVVDVEQHVGHWGQVTQVTVSS | low polyreactivity
4 | QVQLVESGVGLVQAGGSLRLSCAASGFIIRTYAMGWYIQAPGKERELVATITGDGSTNYADSVKGRFTISRDNAKNTVYLQMNSLKPEDTAVYYCSRDDRLAVDYWGQGTQVTVSS | low polyreactivity
5 | QVQLVESGVGLVQAGGSLRLSCAASGFTFMKNAMGWYRQAPGKERELVAAITSSGGRPYYADSVKGRFTISRDIAKNTVYLQMNSLKPEDTAVYYCNKGPLPGYDYWGQGTQVTVSS | high polyreactivity
6 | QVQLVESGVGLVQAGGSLRLSCAASGFTFTRYAMGWYRQAPGKERELVAAISWTGGSTYYADSVKGRFTISRDNAKNTVYLQMNSLKPEDTAVYYCAGRFNYQWSKFGYWGQGTQVTVSS | high polyreactivity
7 | QVQLVESGVGLVQAGGSLRLSCAASGGIFVPYAMGWYRQAPGKERELVAGITSGGSTNYADSVKGRFTISRDNAKNTVYLQMNSLKPEDTAVYYCAARRRPGGRYKSRVWYDYWGQGTQVTVSS | high polyreactivity
8 | QVQLVESGVGLVQAGGSLRLSCAASGGNFWSYPMGLYRQAPGKEREYVAAITTSAGRTNYADSVKGRFTISRDNAKNSVYLQMNSLKPEDTAVYYCAARSAYPGLGYGFDYWGQGTQVTVSS | low polyreactivity
9 | QVQLVESGVGLVQAGGSLRLSCAASGIILYRYSMGWYRQAPGKEREFGAAISRTGASTYYADSVKGRFTISRDNAKKSVYLQMNSRKPEDTAVYYCDVKALDQARYGKSGYWGQGTQVSVSS | high polyreactivity
10 | QVQLVESGVGLVQAGGSLRLSCAASGITFAGNAMGWYRQAPGKERELVATITSDGNTNYADSVKGRFTISRDNAKNTVYLQMNSLKPEDTAVYYCNAEVIVGTDEYDYWGQGTQVTVSS | low polyreactivity
11 | QVQLVESGVGLVQAGGSLRLSCAASGITFYSYAMGWYRQAPGKERELVAAITLTGGTTYYADSVKGRFTISRDNAKNTVYLQMKSLKPEDTAVYYCAAQYWWWSLFEYDSWGQGTQVTVSS | low polyreactivity
12 | QVQLVESGVGLVQAGGSLRLSCAASGNIFLKNAMGWYRQAPGKERELVAAMSKRGGSTYYADSVKGRFTISRDNAKNTVYLQMNSLKPEDTAVYYCAARFKTTGYDYWGQGTQVTVSS | high polyreactivity
13 | QVQLVESGVGLVQAGGSLRLSCAASGPTFRNNAMVWSRQAPGKERELVAAITSGGSTNYADSVKGRFTISRDNAKNTVYLQMNSLKPEDTAVYYCAKDFWYVTGGWSSGMDYWGQGTQVSVSS | low polyreactivity
14 | QVQLVESGVGLVQAGGSLRLSCAASGRIFEDNAMGWYRQAPGKERELVAAIDFSGGDTYYADSVKGRFTISRDNAKNTVYLQMYSLKPEDTAVYYCAAGRSGWGYVSWGQGTQVTVSS | low polyreactivity
15 | QVQLVESGVGLVQAGGSLRLSCAASGRIFGSYTMGWYRQAPGKERELVAGISRRGGSTYYADSVKGRFTISRDNAKNTVYLQMNSLKPEDTAVYYCAVVSSHYKGPGRNGYDYWGQGTQVTVSS | high polyreactivity
16 | QVQLVESGVGLVQAGGSLRLSCAASGRTFDYNAMGWYIQAPGKERELVAAITSSGGSTYYADSVKGRFTISRDNAKNTVYLQMNSLKPEDTAVYYCDTDGQSPYYIYYWGQGTQVTVSS | low polyreactivity
17 | QVQLVESGVGLVQAGGSLRLSCAASGRTFRPYALGWYRQAPGNERELVAAIDSGGSTYADSVKGRFTISRDNAKTTVYLQMNSLKPEDTAVYYSAAVTQTAWLWYGYWGQGTQVTVSS | low polyreactivity
18 | QVQLVESGVGLVQAGGSLRLSCAASGRTLSKNAMGWYRQAPWKERELVATMSSVGRTNYADSVKGRFTISRDNAKNTVYLQMNSLKPEDTAVYYCAARRFRGSYYWGQGTQVTVSS | high polyreactivity
19 | QVQLVESGVGLVQAGGSLRLSCAASGSIFGPYAMGWSRQAPGKERELVAAISLGGGSTYYAASVKGRFTISRDNAKNTVYLQMNSVKPEDTAVYYCNAEFSSGPYGYNGFDYWGQGTQVTVSS | low polyreactivity
20 | QVQLVESGVGLVQAGGSLRLSCAASGSIFPGYAMGWYRQAPGKEMELVAGITWSDARTYYADSVKVRFTISRDNAKNTVYLQMNSLKPEDTAVYYCAADYYYYERDYWGQGTQVTVSS | low polyreactivity
21 | QVQLVESGVGLVQAGGSLRLSCAASGSIFPHYAMGWYRQAPGKERELVAAISSGTSTNYADSVKGRFTISRDNAKNTVYLQMNSLKPEDTAVYFCAADYYSGYDSVDGDYNYWGQGTQVTVSS | low polyreactivity

Row | Sequence | polyreactivity (PSR sort gate)
22 | QVQLVESGVGLVQAGGSLRLSCAASGSIFRYYAMGWYRQAPGKEREFVADITWSGTSTYYADSVKGRFTISRDNAKNTVYFQMNSLKPEDTAVFYCNKYRSYWSGPSYWREYDYWGQGTQVTVSS | high polyreactivity
23 | QVQLVESGVGLVQAGGSLRLSCAASGSILSGYAMGWYRQAPGKERELVAAINDGGGTNYADSVKGRFTISRDNAKNTVYLQMNSLKPEDTAVYYCNKVYYFQRRLTPVYLMDYWGQGTQVTVSS | low polyreactivity
24 | QVQLVESGVGLVQAGGSLRLSCAASGSISDVYAMGVYRQAPGKERDLVAAITSGASTYYADSVKGRFTISLDNAKNTVYLQINSLKPEDTAVYYCSAGYSDWYYAAYNSWGQGTQVTVST | low polyreactivity
25 | QVQLVESGVGLVQAGGSLRLSCAASGSNSGLYAMGWYRQAPGKERELVAAIRWSGGSTRYADSVKGRFTISRDNAKNTVYLLMNSLKPEDTAVYYCAADFYSKFVRFGYWGQGTQVTVSS | high polyreactivity
26 | QVQLVESGVGLVQAGGSLRLSCAASGSTFAKYAMGWYRQAPGKERELVASIRLSGGSTYYADSVKGRFTISRDNAKNTVYLQMNSLKPEDTAVYYCAADVIVFYYAPNYWGDIEYGYWGQGTQVTVSS | low polyreactivity
27 | QVQLVESGVGLVQAGGSLRLSCAASGSTFDDYAMGWYRQAPGKERELVAAINKTGGSTNYADSVKGRFTISRDNAKNTVYLQMNSLKPEDNAVYYCAADGSNYSASVAAFPYRVDYWGQGTQVTVSS | low polyreactivity
28 | QVQLVESGVGLVQAGGSLRLSCAASGSTFGGYAMGWYRQAPGKDTEFVAAISYDGDSTYYADSVKGRFTISRDNAKNTVYLQMNSLKPEDTAVYYCAADISYHYGVWYFYYWGQGTQVTVSS | low polyreactivity
29 | QVQLVESGVGLVQAGGSLRLSCAASGSTFKGYTMGWYRQAPGKERELVAAITYSGGRTYYADSVKGRFTISRDNAKNTVYLQMNSLKPEDTAVYYCAARQQWVKVEYDYWGQGTQVTVSS | high polyreactivity
30 | QVQLVESGVGLVQAGGSLRLSCAASGSTFRYYGMGWYRQAPGKEMELVAAISSSGGSTYYADSLKGRFTISRDNAKNTVSLQMNSLKPEDTAVYYCAAGSRFVSSRLYYWGQGTQVTVSS | high polyreactivity
31 | QVQLVESGVGLVQAGGSLRLSCAASGYTFAYNAMGWYRPAPGKERELVAAITSRAGSTHYADSVKGRFTISRDNAKNTVYLQMNSLKPEDTAVYYCAAKRYNRLRSYRYSDREDYWGQGTQVTVSS | high polyreactivity
32 | QVQLVESGVGLVQAGGSLRLSCAATGRIFDLYAMGWYRQAPGKEREFVAAISGRGGSTYYADSVKGRFTISRDNAKNTVYLEMNSLKPEDTAVYYCNAKRSLYGRYGYWGQGSQVTVSS | high polyreactivity
33 | QVQLVESGVGLVQAGGSLRLSCAPSGRIFIYYAMGWYRQAPGKERELVATITASGDSTYYADSVKGRFTISRDNAKNTVYFQMNSLKPEDTAVYYCAADDGDYYEVDYWGQGTQVTVSS | low polyreactivity
34 | QVQLVESGVGLVQAGGSLRLSCASSGILVYNAMAWYRQAPGKERELVAAISARGGRTYYADSVKGRFTISRDNAKNTVYLQMNSLKPEDTAVYYCATLETTGVNYWGQGTQVTVSS | high polyreactivity
35 | QVQLVESGVGLVQAGGSLRLSCASSGLTFNYYAIGWYRQAPGKERELVAAISSDGRTDYADSVKGRFTISRDNAKNTVYLQMNSLKPEDTAFYSCAVEYQSPDDYWGQGTQVTVSS | low polyreactivity
36 | QVQLVESGVGLVQAGGSLRLSCASSGSIFAYNTMGWYRQAPGKEREFVAAISWLGGSTYYADSVKGRFTISRDNAKNTVYLQMNSLKPEDTAVYYCNARYRTTFYTRRYDYWGQGTQVTVSS | low polyreactivity
37 | QVQLVESGVGLVQAGGSLRLSCASSGSTCGYYTMGWYRQAPGKERELVAAITKTGGGTYYADSVKGRFTISRDNAKNTDYLQMNSLKPEDTAVYYCAAYSRFTSDYWGQGTQVTVSS | high polyreactivity
38 | QVQLVESGVGLVQAGGSLSLSCAASGSTFTRYAMGWYRQAPGKERELVASISRSGNTYYADSVKGRFTISRDNAKNTVYLQMNSLKPEDSAVYYCAAKRKSYYSYNFDYWGQGTQVTVSS | high polyreactivity
39 | QVQLVESGVGLVQAGGSLSLSCAPSGSTFTSYAMGWYRQAPGKEMELVAAITSRRGTYYADSVKGRFTISRDNAKNTVYLEMTSLKPEVTAVYYCAARAPYKKYPYVKWYDYWGQGTQVTVSS | high polyreactivity
40 | QVQLVESGVGLVQAGGTLRLSGAASGLIFEYYAMGWYRQPPGKETELVAAITTSGGSTYYADSVKGRFTISRDIAKNTVYLQMNSLKPEDTAVYDCAAVGVRSRYYGYDYWGQGTLVTVSS | high polyreactivity
41 | QVQLVESGVGLVQAGRNLRLSCAASGIIFYLNAMGWYRQAPGKERELVAAISNGTSTNYADSVKGRFTISRDNAKNTVYLQMNSLKPEDTAVYYCAADDLRYNSRSSNYRGDSWGQGTQVTVSS | low polyreactivity

Source: the nanobody polyreactivity screen of Harvey et al. (2022)
